Experiments:
[1] = biological target: T1, recombinant Plasmodium falciparum circumsporozoite protein (rPfCSP) (Plasmodium falciparum 3D7, UniProt Q7K740); test: BLI; Octet RED384; rPfCSP on the sensor, purified IgG at 2, 1, 0.5, 0.25, 0.125 ug/mL; 1:1 model; apparent affinity; settings: both partners purified
T1 construct: full-length circumsporozoite (CS) protein of 3D7, a clone of the NF54 strain of P. falciparum; also called CS protein

[2] = biological target: T1, recombinant Plasmodium falciparum …; test: BLI; Octet RED384; rPfCSP on the sensor, mouse serum 8 weeks after AAV administration with the mAb at 2, 1, 0.5, 0.25, 0.125 ug/mL; 1:1 model; apparent affinity; settings: one partner purified

T1 sequence (Q7K740 19-374): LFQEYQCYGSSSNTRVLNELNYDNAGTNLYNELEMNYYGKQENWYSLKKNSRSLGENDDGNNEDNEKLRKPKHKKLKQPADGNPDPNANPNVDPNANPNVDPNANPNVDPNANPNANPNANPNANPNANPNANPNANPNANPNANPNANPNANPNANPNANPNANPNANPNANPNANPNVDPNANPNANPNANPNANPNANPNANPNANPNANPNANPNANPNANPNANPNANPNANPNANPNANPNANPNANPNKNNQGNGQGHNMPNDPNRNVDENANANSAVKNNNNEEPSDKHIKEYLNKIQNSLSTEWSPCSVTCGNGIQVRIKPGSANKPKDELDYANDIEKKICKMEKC

Binder	Kd [1]	Kd [2]
CIS43 human monoclonal antibody (antibody, V domains shown, the secreted chain begins at QVQLVQ; light chain of CIS43; IgG1 by the printed constant region; also called rCIS43; CIS43 IgG; source: Expi293 (GenScript) or CHO cells, purified (protein-A column; Superdex200 before BLI)) VH: QVQLVQSGAEVKKPGASVKVSCKASGYTFTSYAIHWVRQAPGQRLEWMGWIKAGNGNTRYSQKFQDRVTITRDTSTTTAYMELSSLRSEDTAVYYCALLTVLTPDDAFDIWGQGTMVTVSS VL: not shown	5 nM	–
CIS43 expressed in vivo from an AAV vector (CIS43-AAV), in mouse serum (antibody, V domains shown, synthesised and cloned into the VIP vector; human IgG1 heavy chain constant region of the VIP expression vector; light chain variable region of CIS43, as in the light chain of Dm1; human kappa light chain constant region of the VIP expression vector; Heavy and light chain are made from one transcript, separated by an F2A self-processing peptide; also called AAV-expressed CIS43; source: expressed …) VH: QVQLVQSGAEVKKPGASVKVSCKASGYTFTSYAIHWVRQAPGQRLEWMGWIKAGNGNTRYSQKFQDRVTITRDTSTTTAYMELSSLRSEDTAVYYCALLTVLTPDDAFDIWGQGTMVTVSS VL: not shown	–	2.3 nM
